Assay results from US20240132578A1.

Tests used:
Assay in all cases: cell-based or functional assay
[1] = target: HIV-1 Env of isolate CAAN.A2 (Acute), clade B (HIV-1)
[2] = target: HIV-1 APV-17 envelope (Env) on pseudovirus (HIV-1)
[3] = target: HIV-1 Env of pseudovirus MGRM-F1-017 (clade F) (HIV-1)
[4] = target: HIV-1 MGRM-G-001 Env (pseudovirus) (HIV-1)
[5] = target: HIV-1 envelope glycoprotein (Env) of isolate MGRM-C-009 (HIV-1)
[6] = target: HIV-1 MGRM-AG-011 Env (pseudovirus) (HIV-1)
[7] = target: HIV-1 Env of pseudovirus MGRM-F1-023 (clade F) (HIV-1)
[8] = target: HIV-1 MGRM-AG-009 Env (pseudovirus) (HIV-1)
[9] = target: HIV-1 Env of isolate MGRM-Chronic-B-003, clade B (HIV-1)
[10] = target: HIV-1 94UG103 envelope (Env) on pseudovirus (HIV-1)
[11] = target: HIV-1 Env of pseudovirus MGRM-F1-014 (clade F) (HIV-1)
[12] = target: HIV-1 Env of pseudovirus MGRM-G-011 (HIV-1)
[13] = target: HIV-1 Env of pseudovirus MGRM-F1-010 (clade F) (HIV-1)
[14] = target: HIV-1 Env of isolate 92RW020 (clade A pseudovirus) (HIV-1)
[15] = target: HIV-1 envelope glycoprotein (Env) of isolate MGRM-C-024 (HIV-1)
[16] = target: HIV-1 Env of isolate MGRM-A-008 (subtype A) (HIV-1)
[17] = target: HIV-1 92UG005 Env (HIV-1)
[18] = target: HIV-1 Env of isolate 98CN006 (pseudovirus) (HIV-1)
[19] = target: HIV-1 Env of isolate MGRM-A-014 (subtype A) (HIV-1)
[20] = target: HIV-1 Env of isolate MGRM-D-029 (HIV-1)
[21] = target: HIV-1 JR-CSF Env I307A (HIV-1 (isolate JR-CSF, clade B)) (UniProt P20871)
[22] = target: HIV-1 Env of pseudovirus isolate MGRM-C-027 (clade C) (HIV-1)
[23] = target: HIV-1 Env of isolate MGRM-AE-005 (subtype AE) (HIV-1)
[24] = target: HIV-1 JR-CSF Env L416A (HIV-1 (isolate JR-CSF)) (UniProt P20871)
[25] = target: HIV-1 MGRM-AG-005 envelope protein (Env) on pseudovirus (HIV-1)
[26] = target: HIV-1 Env of pseudovirus isolate MGRM-C-014 (clade C) (HIV-1)
[27] = target: HIV-1 92UG024 Env (HIV-1)
[28] = target: HIV-1 Env of pseudovirus isolate MGRM-C-013 (clade C) (HIV-1)
[29] = target: HIV-1 envelope glycoprotein (Env) of isolate MG RM-A-010, subtype A (HIV-1)
[30] = target: HIV-1 Env of isolate MGRM-F1-016 (pseudovirus) (HIV-1)
[31] = target: HIV-1 envelope glycoprotein (Env) of isolate 92UG031, subtype A (HIV-1)
[32] = target: HIV-1 envelope glycoprotein (Env) of isolate APV_6, on pseudovirus (HIV-1)
[33] = target: HIV-1 Env of isolate MGRM-AG-001 (pseudovirus) (HIV-1)
[34] = target: HIV-1 envelope glycoprotein (Env) of isolate APV_13, on pseudovirus (HIV-1)
[35] = target: HIV-1 Env of isolate MGRM-F1-021 (pseudovirus) (HIV-1)
[36] = target: HIV-1 envelope glycoprotein (Env) of isolate MGRM-Chronic-B-018, on pseudovirus (HIV-1)

For 2F5 (antibody), the IC50 (µg/ml), pseudovirus neutralization [1] was 23.1 µg/mL, the neutralization IC50 [2] was 2 µg/mL and the IC50 [3] was greater than 50 µg/mL. The IC50 (µg/ml), pseudovirus neutralization [4] was 4.1 µg/mL, the IC50 (µg/ml), pseudovirus neutralization [5] was greater than 50 µg/mL and the IC50 (µg/ml), pseudovirus neutralization [6] was greater than 50 µg/mL. The IC50 [7] was 1.78 µg/mL, the IC50 (µg/ml), pseudovirus neutralization [8] was 24.8 µg/mL and the IC50 (µg/ml), pseudovirus neutralization [9] was 1 µg/mL. It also gave a neutralization IC50 [10] of 3.79 µg/mL, an IC50 [11] of 15.1 µg/mL and an IC50 (µg/ml), pseudovirus neutralization [12] of 1.16 µg/mL. It also gave an IC50 [13] of 14.6 µg/mL, an IC50 (µg/ml), pseudovirus neutralization [14] of 3.36 µg/mL and an IC50 (µg/ml), pseudovirus neutralization [15] greater than 50 µg/mL.
Work on 5147_N06 (PGT-130) (antibody) yielded an IC50, pseudovirus neutralization [16] greater than 50 µg/mL, an IC50, pseudovirus neutralization [17] of 0.474 µg/mL and an IC50 (µg/mL), pseudovirus neutralization [18] of 0.258 µg/mL. For the same substance, the IC50, pseudovirus neutralization [19] was 0.161 µg/mL, the IC50 (µg/mL), pseudovirus neutralization [20] was greater than 50 µg/mL and the Fold IC50 increase relative to wild-type [21] was 1000 fold. The IC50, pseudovirus neutralization [22] was 0.008 µg/mL, the IC50, pseudovirus neutralization [23] was 0.006 µg/mL and the Fold IC50 increase relative to wild-type (pseudovirus neutralization) [24] was 1 fold. For the same substance, the IC50 (ug/mL), pseudovirus neutralization [25] was 0.947 µg/mL, the IC50, pseudovirus neutralization [26] was greater than 50 µg/mL and the IC50, pseudovirus neutralization [27] was greater than 10 µg/mL. The IC50, pseudovirus neutralization [28] was greater than 50 µg/mL.
1495_C14 (PGC14) (antibody) showed an IC50 (µg/ml), pseudovirus neutralization [1] greater than 50 µg/mL, a neutralization IC50 [2] greater than 50 µg/mL and an IC50 [3] greater than 50 µg/mL. It also gave an IC50 (µg/ml), pseudovirus neutralization [4] greater than 50 µg/mL, an IC50 (µg/ml), pseudovirus neutralization [5] greater than 50 µg/mL and an IC50 (µg/ml), pseudovirus neutralization [6] greater than 50 µg/mL. For the same substance, the IC50 [7] was greater than 50 µg/mL, the IC50 (µg/ml), pseudovirus neutralization [8] was greater than 50 µg/mL and the IC50 (µg/ml), pseudovirus neutralization [9] was greater than 50 µg/mL. For the same substance, the neutralization IC50 [10] was greater than 50 µg/mL, the IC50 [11] was greater than 50 µg/mL and the IC50 (µg/ml), pseudovirus neutralization [12] was greater than 50 µg/mL. For the same substance, the IC50 [13] was greater than 50 µg/mL, the IC50 (µg/ml), pseudovirus neutralization [14] was 46 µg/mL and the IC50 (µg/ml), pseudovirus neutralization [15] was greater than 50 µg/mL.
Substance 4858_P08 (PGT-123) (antibody) has an IC50, pseudovirus neutralization [17] of 2.49 µg/mL, an IC50, pseudovirus neutralization [29] of 0.705 µg/mL and an IC50 (µg/mL), pseudovirus neutralization [30] of 4.95 µg/mL. The IC50, pseudovirus neutralization [31] was greater than 50 µg/mL, the IC50, pseudovirus neutralization [32] was 0.023 µg/mL and the Fold IC50 increase relative to wild-type [21] was 5.9 fold. For the same substance, the IC50 (µg/mL), pseudovirus neutralization [33] was 2.51 µg/mL, the IC50, pseudovirus neutralization [34] was 0.138 µg/mL and the Fold IC50 increase relative to wild-type (pseudovirus neutralization) [24] was 0.9 fold. The IC50 (ug/mL), pseudovirus neutralization [25] was 0.104 µg/mL, the IC50 (µg/mL), pseudovirus neutralization [35] was 0.307 µg/mL and the IC50, pseudovirus neutralization [36] was greater than 50 µg/mL. The IC50, pseudovirus neutralization [27] was greater than 10 µg/mL.
Work on 5114_A19 (PGT-128) (antibody) yielded an IC50, pseudovirus neutralization [16] greater than 50 µg/mL, an IC50 (µg/mL), pseudovirus neutralization [18] of 0.015 µg/mL and an IC50, pseudovirus neutralization [19] of 0.007 µg/mL. For the same substance, the IC50 (µg/mL), pseudovirus neutralization [20] was greater than 50 µg/mL, the Fold IC50 increase relative to wild-type [21] was 3.7 fold and the IC50, pseudovirus neutralization [22] was 0.081 µg/mL. The IC50, pseudovirus neutralization [23] was 0.032 µg/mL, the Fold IC50 increase relative to wild-type (pseudovirus neutralization) [24] was 1.1 fold and the IC50, pseudovirus neutralization [26] was greater than 50 µg/mL. The IC50, pseudovirus neutralization [28] was greater than 50 µg/mL.
With 5136_H01 (PGT-131) (antibody) the IC50, pseudovirus neutralization [16] was greater than 50 µg/mL, the IC50 (µg/mL), pseudovirus neutralization [18] was 35.3 µg/mL and the IC50, pseudovirus neutralization [19] was 15.4 µg/mL. It also gave an IC50 (µg/mL), pseudovirus neutralization [20] greater than 50 µg/mL, a Fold IC50 increase relative to wild-type [21] greater than 170 fold and an IC50, pseudovirus neutralization [22] of 0.065 µg/mL. The IC50, pseudovirus neutralization [23] was 0.017 µg/mL, the Fold IC50 increase relative to wild-type (pseudovirus neutralization) [24] was 1 fold and the IC50, pseudovirus neutralization [26] was greater than 50 µg/mL. For the same substance, the IC50, pseudovirus neutralization [28] was greater than 50 µg/mL.
Substance 1443_C16 (PG16) (TCN-116) (antibody) has an IC50 (µg/ml), pseudovirus neutralization [1] of 8.83 µg/mL, a neutralization IC50 [2] greater than 50 µg/mL and an IC50 [3] greater than 50 µg/mL. The IC50 (µg/ml), pseudovirus neutralization [4] was 0.15 µg/mL, the IC50 (µg/ml), pseudovirus neutralization [5] was greater than 50 µg/mL and the IC50 (µg/ml), pseudovirus neutralization [6] was 0.002 µg/mL. It also gave an IC50 [7] greater than 50 µg/mL, an IC50 (µg/ml), pseudovirus neutralization [8] greater than 50 µg/mL and an IC50 (µg/ml), pseudovirus neutralization [9] of 0.19 µg/mL. For the same substance, the neutralization IC50 [10] was 0.008 µg/mL, the IC50 [11] was 0.01 µg/mL and the IC50 (µg/ml), pseudovirus neutralization [12] was 0.04 µg/mL. For the same substance, the IC50 [13] was 0.01 µg/mL, the IC50 (µg/ml), pseudovirus neutralization [14] was 0.28 µg/mL and the IC50 (µg/ml), pseudovirus neutralization [15] was 0.04 µg/mL.
With 4E10 (antibody) the IC50 (µg/ml), pseudovirus neutralization [1] was 17.9 µg/mL, the neutralization IC50 [2] was 5.1 µg/mL and the IC50 [3] was 4.92 µg/mL. The IC50 (µg/ml), pseudovirus neutralization [4] was 2.04 µg/mL, the IC50 (µg/ml), pseudovirus neutralization [5] was 0.56 µg/mL and the IC50 (µg/ml), pseudovirus neutralization [6] was 1.36 µg/mL. The IC50 [7] was 0.44 µg/mL, the IC50 (µg/ml), pseudovirus neutralization [8] was 31.4 µg/mL and the IC50 (µg/ml), pseudovirus neutralization [9] was 3.5 µg/mL. The neutralization IC50 [10] was 9.7 µg/mL, the IC50 [11] was 7.36 µg/mL and the IC50 (µg/ml), pseudovirus neutralization [12] was 1.44 µg/mL. It also gave an IC50 [13] of 3.69 µg/mL, an IC50 (µg/ml), pseudovirus neutralization [14] of 4.54 µg/mL and an IC50 (µg/ml), pseudovirus neutralization [15] of 22.6 µg/mL.
Work on 2G12 (antibody) yielded an IC50 (µg/ml), pseudovirus neutralization [1] greater than 50 µg/mL, a neutralization IC50 [2] greater than 50 µg/mL and an IC50 [3] greater than 50 µg/mL. For the same substance, the IC50 (µg/ml), pseudovirus neutralization [4] was greater than 50 µg/mL, the IC50 (µg/ml), pseudovirus neutralization [5] was greater than 50 µg/mL and the IC50 (µg/ml), pseudovirus neutralization [6] was greater than 50 µg/mL. It also gave an IC50 [7] of 9.23 µg/mL, an IC50 (µg/ml), pseudovirus neutralization [8] greater than 50 µg/mL and an IC50 (µg/ml), pseudovirus neutralization [9] of 0.06 µg/mL. The neutralization IC50 [10] was greater than 50 µg/mL, the IC50 [11] was greater than 50 µg/mL and the IC50 (µg/ml), pseudovirus neutralization [12] was greater than 50 µg/mL. It also gave an IC50 (µg/ml), pseudovirus neutralization [14] of 0.48 µg/mL and an IC50 (µg/ml), pseudovirus neutralization [15] greater than 50 µg/mL.
In the case of b12 (antibody), the IC50 (µg/ml), pseudovirus neutralization [1] is reported as greater than 50 µg/mL, the neutralization IC50 [2] is reported as greater than 25 µg/mL and the IC50 [3] is reported as greater than 50 µg/mL. For the same substance, the IC50 (µg/ml), pseudovirus neutralization [4] was greater than 50 µg/mL, the IC50 (µg/ml), pseudovirus neutralization [5] was greater than 50 µg/mL and the IC50 (µg/ml), pseudovirus neutralization [6] was greater than 50 µg/mL. For the same substance, the IC50 [7] was greater than 50 µg/mL, the IC50 (µg/ml), pseudovirus neutralization [8] was greater than 50 µg/mL and the IC50 (µg/ml), pseudovirus neutralization [9] was greater than 50 µg/mL. For the same substance, the neutralization IC50 [10] was 3.54 µg/mL, the IC50 [11] was greater than 50 µg/mL and the IC50 (µg/ml), pseudovirus neutralization [12] was greater than 50 µg/mL. The IC50 [13] was greater than 50 µg/mL, the IC50 (µg/ml), pseudovirus neutralization [14] was greater than 50 µg/mL and the IC50 (µg/ml), pseudovirus neutralization [15] was greater than 50 µg/mL.
